± gives the uncertainty stated by the source.
B1: Membrane-associated guanylate kinase, WW and PDZ domain-containing protein 2, residues 601 to 682; numbered along this chain, Q86UL8 (parent)
chain: AELMTLTIVKGAQGFGFTIADSPTGQRVKQILDIQGCPGLCEGDLIVEINQQNVQNLSHTEVVDILKDCPIGSETSLIIHRG

Variants of: B1
Assay: abundance fitness (aPCA) (normalised: wild type 0, dead -1); higher = more abundant; growth selection in yeast, the domain comes from the species named
Settings: Homo sapiens

Variant	abundance fitness
T60L	-0.011 ± 0.071
T60Y	-0.165 ± 0.2
T60C	0.17 ± 0.15
T60N	0.054 ± 0.11
T60P	-0.198 ± 0.15
T60M	0.012 ± 0.11
T60E	-0.051 ± 0.11
T60K	-0.003 ± 0.15
T60D	-0.136 ± 0.12
T60S	-0.032 ± 0.093
T60R	-0.038 ± 0.065
T60W	-0.075 ± 0.12
T60V	0.004 ± 0.086
D64W	-0.047 ± 0.1
D64F	-0.112 ± 0.2
D64L	-0.128 ± 0.087
D64M	-0.308 ± 0.14
D64T	-0.126 ± 0.12
D64N	-0.067 ± 0.3
D64C	-0.238 ± 0.18
D64Y	0.08 ± 0.19
D64H	0.195 ± 0.3
D64G	-0.059 ± 0.071
D64K	0.011 ± 0.16

Variant	abundance fitness
D64Q	-0.057 ± 0.11
D64I	-0.183 ± 0.18
D64V	-0.06 ± 0.063
D64P	-0.202 ± 0.2
D64S	0.013 ± 0.085
D64A	-0.191 ± 0.09
P70C	-0.315 ± 0.19
P70L	-0.085 ± 0.11
P70Q	-0.084 ± 0.13
P70W	-0.087 ± 0.12
P70R	-0.003 ± 0.067
P70S	-0.001 ± 0.12
P70H	-0.107 ± 0.11
P70N	-0.089 ± 0.23
P70G	-0.185 ± 0.076
P70M	-0.098 ± 0.12
P70E	0.007 ± 0.082
P70K	-0.056 ± 0.24
P70A	-0.227 ± 0.099
P70D	0.077 ± 0.29
P70T	-0.108 ± 0.12
P70F	-0.074 ± 0.12
R81M	-0.387 ± 0.12
R81H	0.048 ± 0.23

Variant	abundance fitness
R81E	-0.419 ± 0.1
R81N	-0.144 ± 0.37
R81G	0.017 ± 0.067
R81A	-0.098 ± 0.079
R81Q	-0.051 ± 0.16
R81D	-0.538 ± 0.41
R81P	0.039 ± 0.083
R81I	-0.668 ± 0.25
R81K	-0.21 ± 0.17
L77I	0.24 ± 0.29
L77E	-1.12 ± 0.38
L77P	-0.86 ± 0.24
L77K	-0.892 ± 0.31
L77T	-0.132 ± 0.12
L77A	-0.124 ± 0.07
L77R	-1.17 ± 0.28
L77W	-0.072 ± 0.075
L77M	0.008 ± 0.12
L77S	-0.583 ± 0.15
L77D	-1.28 ± 0.48
L77V	-0.03 ± 0.062
L77F	-0.05 ± 0.38
L77G	-1.02 ± 0.15
G72L	-0.003 ± 0.079

Variant	abundance fitness
G72W	-0.243 ± 0.1
G72K	-0.139 ± 0.099
G72T	-0.147 ± 0.092
G72C	0.046 ± 0.089
G72N	-0.189 ± 0.34
G72M	0.059 ± 0.089
G72Q	0.003 ± 0.17
G72F	-0.353 ± 0.16
G72E	-0.018 ± 0.097
G72H	-0.356 ± 0.28
G72S	0.004 ± 0.083
G72D	0.073 ± 0.089
G72Y	-0.419 ± 0.24
G72P	0.022 ± 0.12
G72R	0.006 ± 0.065
G72A	0.002 ± 0.061
I79Q	-0.73 ± 0.27
I79F	-0.046 ± 0.17
I79W	-0.467 ± 0.17
I79C	-0.115 ± 0.12
I79T	-0.063 ± 0.12
I79V	-0.102 ± 0.073
I79S	-0.314 ± 0.11
I79R	-0.24 ± 0.064

Variant	abundance fitness
I79M	-0.005 ± 0.16
I79A	-0.214 ± 0.14
I79G	-0.42 ± 0.11
I79K	-0.534 ± 0.16
I79L	0.036 ± 0.077
C69D	-0.27 ± 0.13
C69H	-0.329 ± 0.2
C69A	-0.029 ± 0.07
C69M	-0.102 ± 0.12
C69S	0.177 ± 0.18
C69E	-0.086 ± 0.094
C69R	-0.08 ± 0.08
C69W	-0.25 ± 0.11
C69N	-0.195 ± 0.16
C69Q	-0.125 ± 0.13
C69L	-0.064 ± 0.11
C69V	-0.03 ± 0.065
C69T	0.085 ± 0.11
C69P	-0.421 ± 0.22
C69Y	-0.174 ± 0.12
C69K	0.108 ± 0.14
C69G	-0.059 ± 0.061
D68W	-0.166 ± 0.15
D68P	-0.233 ± 0.26

Variant	abundance fitness
D68A	-0.14 ± 0.15
D68T	-0.153 ± 0.095
D68Q	0.07 ± 0.11
D68E	-0.022 ± 0.088
D68I	-0.271 ± 0.18
D68C	-0.101 ± 0.14
D68L	-0.138 ± 0.086
D68R	-0.136 ± 0.068
D68G	-0.057 ± 0.1
D68V	0.046 ± 0.082
D68K	0.005 ± 0.13
D68H	0.222 ± 0.28
D68F	-0.304 ± 0.5
D68M	0.027 ± 0.15
D68Y	0.011 ± 0.24
H80E	0.019 ± 0.11
H80T	0.028 ± 0.079
H80V	-0.231 ± 0.098
H80R	0.027 ± 0.063
H80L	-0.135 ± 0.079
H80S	0.014 ± 0.075
H80P	-0.395 ± 0.14
H80D	0.043 ± 0.14
H80W	-0.079 ± 0.16

Variant	abundance fitness
H80N	0.124 ± 0.19
H80F	-0.128 ± 0.19
H80A	-0.049 ± 0.077
H80G	-0.006 ± 0.076
H80C	-0.121 ± 0.11
H80M	-0.23 ± 0.27
T75M	0.047 ± 0.11
T75E	-0.072 ± 0.11
T75V	0.013 ± 0.091
T75I	-0.101 ± 0.4
T75L	-0.045 ± 0.072
T75Y	-0.151 ± 0.12
T75C	-0.331 ± 0.2
T75R	-0.113 ± 0.075
T75P	-0.164 ± 0.078
T75Q	-0.148 ± 0.14
T75S	-0.331 ± 0.082
T75F	-0.02 ± 0.16
T75N	-0.115 ± 0.19
T75A	0.101 ± 0.079
T75K	-0.133 ± 0.11
T75D	-0.09 ± 0.21
T75G	-0.08 ± 0.063
